Assay results: paper PMC3896448 (2014)
Positions count from the first letter of the chain named.

Key:
[1] = biological target: T1, hen egg-white lysozyme (hen (egg-white), UniProt P00698 19-147)
[2] = biological target: T1, hen egg-white lysozyme; assay: SPR

T1 sequence (P00698 19-147): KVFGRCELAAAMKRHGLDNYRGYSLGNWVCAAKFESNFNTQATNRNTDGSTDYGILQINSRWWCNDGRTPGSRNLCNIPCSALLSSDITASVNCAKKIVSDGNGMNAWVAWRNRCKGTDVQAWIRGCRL

B1: OBody AM1L10 (designed binder)
chain: AMGSVYPKKTHWTAEITPNLHGTEVVVAGWVASLGDYGRVKIVKVSDREGGAAVSVYLEYGKTPDHLFKVFAELSREDVVVIKGIVEASKAAADMHNGVEIFPSEIWILNKAK
[1]
  Kd: 4600 nM

B2: OBody AM3L15 (designed binder)
chain: VSPKKTHWTAEITPNLHGSEVVVAGWVAHLGDYGRVKIVKVSDREGGAAVPVYLERGKTPDHLFKVFAELSREDVVVIKGIVEAGWPVALDTGVEIFPSEIWILNKAKPLPID
[2]
  koff: 0.0256 s⁻¹

B3: OBody AM3L09 (designed binder)
chain: B2 chain with G85T, W86T, P87V, V88T, A89R, L90W
[2]
  koff: 0.00249 s⁻¹

B4: OBody AM1L200 (designed binder)
chain: B2 chain with S2Y, S19T, K37M, G85S, W86K, P87Q, V88Y, A89G, L90S
[1]
  Kd: 1200 nM
